This passage reports protein stability index results from the supplement of paper PMC10567573.

First the molecules themselves.
B1: HESX1 (parent)
chain: ENKPSTCSFSIERILGLDQKKDCV
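Further: lentivirally expressed fusions sorted by FACS into six bins by GFP to DsRed ratio, PSI derived from sequencing read proportions per bin multiplied by bin number.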

Variants of B1 are the subject of the data set. Nature of the data set: protein stability index of a GFP-peptide fusion (GPS, HEK-293T) (PSI 1-6); higher = more stable. To be noted: c terminus: a fixed tail appended.
For ENKPSTCSFSIERILGLDQWKDCV, the protein stability index turned out to be 1.62.
As for ENKPSTCSFSIERILGLDQPKDCV, the protein stability index was found to be 2.75.
With ENKPSTCSFSIERILGLDQEKDCV the figure was 3.08.
The figure for ENKPSTCSFSIERILGLDQDKDCV is 3.27; for ENKPSTCSFSIERILGLDQQKDCV it is 2.56.
The figure for ENKPSTCSFSIERILGLDQVKDCV is 2.25; for ENKPSTCSFSIERILGLDQLKDCV it is 1.93; for ENKPSTCSFSIERILGLDQTKDCV it is 2.53.
ENKPSTCSFSIERILGLDQMKDCV: the protein stability index turned out to be 2.67.
Regarding ENKPSTCSFSIERILGLDQNKDCV, the protein stability index is 2.71.
The figure for ENKPSTCSFSIERILGLDQFKDCV is 2.22.
The figure for ENKPSTCSFSIERILGLDQCKDCV is 2.52; for ENKPSTCSFSIERILGLDQSKDCV it is 2.69.
With ENKPSTCSFSIERILGLDQAKDCV the figure was 2.45; with ENKPSTCSFSIERILGLDQRKDCV, 2.41.
Regarding ENKPSTCSFSIERILGLDQIKDCV, the protein stability index was 2.13.
The figure for ENKPSTCSFSIERILGLDQHKDCV is 2.47; for ENKPSTCSFSIERILGLDQYKDCV it is 1.97; for ENKPSTCSFSIERILGLDQKMDCV it is 2.05.
With ENKPSTCSFSIERILGLDQKHDCV the figure was 2.35; with ENKPSTCSFSIERILGLDQKLDCV, 2.27; with ENKPSTCSFSIERILGLDQKRDCV, 2.62.
The figure for ENKPSTCSFSIERILGLDQKEDCV is 3.4; for ENKPSTCSFSIERILGLDQKYDCV it is 1.67.
As for ENKPSTCSFSIERILGLDQKGDCV, the protein stability index was 2.86.
The figure for ENKPSTCSFSIERILGLDQKFDCV is 2.35; for ENKPSTCSFSIERILGLDQKQDCV it is 2.93; for ENKPSTCSFSIERILGLDQKNDCV it is 2.62.
With ENKPSTCSFSIERILGLDQKPDCV the figure was 2.67.
As to ENKPSTCSFSIERILGLDQKVDCV, the protein stability index was determined as 2.54.
The figure for ENKPSTCSFSIERILGLDQKADCV is 2.41.
With ENKPSTCSFSIERILGLDQKDDCV, the protein stability index was 3.16.
Consider ENKPSTCSFSIERILGLDQKIDCV, for which the protein stability index was determined as 1.9.
For the variant ENKPSTCSFSIERILGLDQKSDCV, the protein stability index is 2.95.
Consider ENKPSTCSFSIERILGLDQKCDCV, for which the protein stability index was 2.11.
The figure for ENKPSTCSFSIERILGLDQKTDCV is 3.19; for ENKPSTCSFSIERILGLDQKWDCV it is 1.86.
Turning to ENKPSTCSFSIEEILGLDQKKDCV, the protein stability index worked out at 3.46.
The figure for ENKPSTCSFSIECILGLDQKKDCV is 2.6.
The figure for ENKPSTCSFSIEAILGLDQKKDCV is 3.18; for ENKPSTCSFSIEIILGLDQKKDCV it is 1.82.
With ENKPSTCSFSIEPILGLDQKKDCV the figure was 4.41.
As to ENKPSTCSFSIEWILGLDQKKDCV, the protein stability index amounted to 1.75.
On to ENKPSTCSFSIEQILGLDQKKDCV, for which the protein stability index amounted to 2.68.
With ENKPSTCSFSIELILGLDQKKDCV the figure was 2.27; with ENKPSTCSFSIEMILGLDQKKDCV, 1.9.
With ENKPSTCSFSIETILGLDQKKDCV the figure was 3.35; with ENKPSTCSFSIEKILGLDQKKDCV, 2.33; with ENKPSTCSFSIEYILGLDQKKDCV, 2.08.
With ENKPSTCSFSIEVILGLDQKKDCV the figure was 2.12; with ENKPSTCSFSIEGILGLDQKKDCV, 3.78; with ENKPSTCSFSIESILGLDQKKDCV, 3.24.
Take ENKPSTCSFSIEFILGLDQKKDCV: the protein stability index was 1.48.
The figure for ENKPSTCSFSIEDILGLDQKKDCV is 3.9; for ENKPSTCSFSIEHILGLDQKKDCV it is 3.31; for ENKPSTCSFSIENILGLDQKKDCV it is 3.96.
The figure for ENKPSTCSFSITRILGLDQKKDCV is 2.94.
In the case of ENKPSTCSFSIGRILGLDQKKDCV, the protein stability index amounted to 3.65.
The figure for ENKPSTCSFSILRILGLDQKKDCV is 1.86; for ENKPSTCSFSIPRILGLDQKKDCV it is 2.94; for ENKPSTCSFSISRILGLDQKKDCV it is 2.84.
With ENKPSTCSFSINRILGLDQKKDCV the figure was 3.44; with ENKPSTCSFSIWRILGLDQKKDCV, 1.48.
ENKPSTCSFSIHRILGLDQKKDCV: the protein stability index was 2.47.
The figure for ENKPSTCSFSIMRILGLDQKKDCV is 1.86; for ENKPSTCSFSIQRILGLDQKKDCV it is 2.57; for ENKPSTCSFSIVRILGLDQKKDCV it is 1.64.
As for ENKPSTCSFSIYRILGLDQKKDCV, the protein stability index worked out at 1.9.
The figure for ENKPSTCSFSIRRILGLDQKKDCV is 2.46; for ENKPSTCSFSIIRILGLDQKKDCV it is 1.61; for ENKPSTCSFSIKRILGLDQKKDCV it is 2.86.
For ENKPSTCSFSIERILGNDQKKDCV, the protein stability index is 4.42.
On to ENKPSTCSFSIERILGADQKKDCV, for which the protein stability index turned out to be 4.
Take ENKPSTCSFSIERILGIDQKKDCV: the protein stability index came to 3.31.
The figure for ENKPSTCSFSIERILGYDQKKDCV is 2.56; for ENKPSTCSFSIERILGTDQKKDCV it is 3.78; for ENKPSTCSFSIERILGFDQKKDCV it is 2.91.
With ENKPSTCSFSIERILGWDQKKDCV the figure was 2.82; with ENKPSTCSFSIERILGGDQKKDCV, 3.83; with ENKPSTCSFSIERILGSDQKKDCV, 3.86.
With ENKPSTCSFSIERILGDDQKKDCV the figure was 4.4; with ENKPSTCSFSIERILGCDQKKDCV, 3.22; with ENKPSTCSFSIERILGPDQKKDCV, 4.69.
Consider ENKPSTCSFSIERILGMDQKKDCV, for which the protein stability index stood at 2.11.
With ENKPSTCSFSIERILGEDQKKDCV, the protein stability index is 4.25.
With ENKPSTCSFSIERILGVDQKKDCV the figure was 4.2; with ENKPSTCSFSIERILGHDQKKDCV, 3.53.
The figure for ENKPSTCSFSIERILGQDQKKDCV is 3.59; for ENKPSTCSFSIERILGKDQKKDCV it is 4.04.
The figure for ENKPSTCSFSIERILGLDHKKDCV is 2.47; for ENKPSTCSFSIERILGLDSKKDCV it is 2.79.
On to ENKPSTCSFSIERILGLDWKKDCV, for which the protein stability index came to 1.35.
Take ENKPSTCSFSIERILGLDMKKDCV: the protein stability index was determined as 2.6.
With ENKPSTCSFSIERILGLDLKKDCV the figure was 2.62.
